This note sets out measurements from PMC11948038 (2025).

This experiment deals with cytochrome c (UniProt P99999 2-105). Briefly: NMR.
Sequence of cytochrome c (P99999 2-105): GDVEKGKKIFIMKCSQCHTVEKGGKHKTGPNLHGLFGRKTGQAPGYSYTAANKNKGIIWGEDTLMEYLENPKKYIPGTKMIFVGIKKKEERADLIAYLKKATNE

B1: full-length ANP32A (natural protein)
chain: MEMGRRIHLELRNRTPSDVKELVLDNSRSNEGKLEGLTDEFEELEFLSTINVGLTSIANLPKLNKLKKLELSDNRVSGGLEVLAEKCPNLTHLNLSGNKIKDLSTIEPLKKLENLKSLDLFNCEVTNLNDYRENVFKLLPQLTYLDGYDRDDKEAPDSDAEGYVEGLDDEEEDEDEEEYDEDAQVVEDEEDEDEEEEGEEEDVSGEEEEDEEGYNDGEVDDEEDEEELGEEERGQKRKREPEDEGEDDD
B1 displayed a Kd of 379 µM.

What is called Kd is the concentration at which binding is half-saturated. Read a high Kd as weaker binding.
